Experiment: soluble on expression in E. coli; label from the status in PepcDB or PDB records

**Q.** For “MTADRTGHCLCGGVQIAVATVSHEIGACHCEMCRRWTGSAFVTMMVPEAAMTVTGAEHVKAYASSAWAERCFCGSCGSTLWYRLTGPGMPRDYYMAAGLLDDLSGIRLAHEIYIDRKPDAWSFAGPTHQMTEAEFLATLPASPEE”, which “soluble on expression in E. coli” value is on record?
**A.** not soluble

**Q.** With “SNAMATFMTEDFLLKNDIARTLYHKYAAPMPIYDFHCHLSPQEIADDRRFDNLGQIWLEGDHYKWRALRSAGVDESLITGKETSDYEKYMAWANTVPKTLGNPLYHWTHLELRRPFGITGTLFGPDTAESIWTQCNEKLATPAFSARGIMQQMNVRMVGTTDDPIDSLEYHRQIAADDSIDIEVAPSWRPDKVFKIELDGFVDYLRKLEAAADVSITRFDDLRQALTRRLDHFAACGCRASDHGIETLRFAPVPDDAQLDAILGKRLAGETLSELEIAQFTTAVLVWLGRQYAARGWVMQLHIGAIRNNNTRMFRLLGPDTGFDSIGDNNISWALSRLLDSMDVTNELPKTILYCLNPRDNEVLATMIGNFQGPGIAGKVQFGSGWWFNDQKDGMLRQLEQLSQMGLLSQFVGMLTDSRSFLSYTRHEYFRRILCNLLGQWAQDGEIPDDEAMLSRMVQDICFNNAQRYFTIK” as the sequence, how does the “soluble on expression in E. coli” value read?
**A.** soluble

**Q.** Which “soluble on expression in E. coli” value does the source give for “MGSDKIHHHHHHMEFYERAKKYEYKFTDTEDMIIEYMRKNKEEIVKLSIQSLADKFFTVPNTIVRLCKKMEYDGFSQLKNNLKEELKNENKEPKNGFESDIKKTLELIDYEKINKVADIIQKSRSIIVYGIGQNIPLCEILVKEIRGGHDNITYYSQRHEVLHDIGKLGEQDMFFALSLSGETKEVIEAAKTAVNKGCKVVALTHICENQLQQIADISLYCYSTIKQVNGYNISDKVPIMMIMRAIIEQYWLR” here?
**A.** not soluble

**Q.** Which “soluble on expression in E. coli” value does the source give for “MKHLKLIVVILATLALGCLIKSPASVKFEIDRTTIPPSGVFHLIVTLNNTGKVGIVDAKLVVEGEEFFIVQSPKLEHPIKVGDSAKLIWTIKGPKIPGNYHFKAYLDIVDELNRVWRGITYETTIKVSSEELKDSVNLNLTVPSKVQGGKIIIVSGEIVNNLTVPVNIVSAEVSAEDLEVIDKEVPNKIDANSKGKVVFKFKVPPRYEKVRMYVIIEYASLQVSGKLIGEKDILIVWKPWELSPEDVKDIYGNLSEWIFYNDIVDGYWEWMYGSKSKIENRTMFRESVEDLLSVANSDVEAAKAVYNHIVTNYVIEKRRIKTLDPQKIMESSSISPTEAEILMVAYLRSLNIPARIVSVYSETDCTYSPFVEAYLSGKWYVIDFNHMFFGTREEFIATRWYPKIYQEITVFGKSLVALKPSPSGHAHEDLTKEYLSITEKALFNHLSKSLDPSTFSQVRIMLNSMNNEDERIFAMFLFTSAKPEEAKQLLEKVHVNELKKTIDAFYKFYRDIPWEEDFRIYWEKLINLYRLEHHHHHH” here?
**A.** not soluble

**Q.** Which “soluble on expression in E. coli” value does the source give for “MKTNEVLENIKARRSVRAYTDRQVSEEDLQAILEAATFAPSGMHLETWHFTAIQNADKLAELNERIKGAFAKSDEPKLQERGHSKAYCCYYHAPTLVIVSNEPTQWWAGMDCACAIENMFLAAHSLGIGSCWINQLGTTCDDPEVREFISSLGVPENHKVYGCVALGYADPKISLREKMVKAGTVTVVR” here?
**A.** not soluble

**Q.** Which “soluble on expression in E. coli” value does the source give for “MHHHHHHSSGVDLGTENLYFQSMENRELTYITNSIAEAQRVMAAMLADERLLATVRKVADACIASIAQGGKVLLAGNGGSAADAQHIAGEFVSRFAFDRPGLPAVALTTDTSILTAIGNDYGYEKLFSRQVQALGNEGDVLIGYSTSGKSPNILAAFREAKAKGMTCVGFTGNRGGEMRELCDLLLEVPSADTPKIQEGHLVLGHIVCGLVEHSIFGKQ” here?
**A.** soluble

**Q.** With “MSTTDKQVAIVGVGPRGISILERIAAALNTVSRPKQGLTIHLIEDAQMGAGNVWRTDQTRTLCMNTLAGAVTLFTEPGSTVSAPVVEGPLQFDWIRLLRGDEDLSGIPTKAIELFRTYPPAASVAEDFKEELAATVIQSNPSRALYGAYLRWAFDVALQLLPQWVKVEQHHARAIGIREDGDRDVITLDNSEMISADSTVLAVGWQTPAPNAEELSIAAALEENPDLVWVKPGNPVEQDASLIPAGEQVLVRGLGMGFFDIMALTTIDRGGIFHEDPSTRSGLRYEASGEEPHFVISSGRGYPYLPKSDYKSLPPGAKLARLKAVIAAINAQNRGVASINYDAEVWPAVARDAYEAYYETLDRVSPESIRTGLDKIVEIIDEVDVDKLPKALAAHTDDVFDLHAWEFPLAGINESVEALTARIADGMARDIRHAVTAWDSPLKSALWSISAARKPSSILGAEGRLTFESRRNRFAAVMAIGQMVGSGPPLFRTRELLALVDAGLAHFAGARPRLSVSDGQWQISSPTTGDTPLRSKVLVDAWMHNP” as the sequence, how does the “soluble on expression in E. coli” value read?
**A.** not soluble

**Q.** Which “soluble on expression in E. coli” value does the source give for “MILTPIRRYGAMILMLLTLVFSSEVLAKTHTTTASQKSHLTKASNKQVSSKQEYSRNSAKSSSLPDLRKYPSGTSRKKAFLRTVMPYITSQNAAITAERNWLISKQYQGQWSPAERARLKDIAKRYKVKWSGNTRKIPWNTLLERVDIIPTSMVATMAAAESGWGTSKLARNNNNLFGMKCMKGRCTNAPGKVKGYSQFSSVKESVSAYVTNLNTHPAYSSFRKSRAQLRKADQEVTATAMIHKLKGYSTKGKSYNNYLFAMYQDNQRLIAAHM” here?
**A.** not soluble

**Q.** Which “soluble on expression in E. coli” value does the source give for “MTDHLRGFYKAEFETARKKAHGVIFLHDGKIQGGDSTFLYSGAYSQSGLTVAGNLRGVRYSSDHSRLSVFGIEPFEITFDGVAKDGYVTIEGYAHETPSLPLKAILTRVDD” here?
**A.** not soluble

**Q.** Which “soluble on expression in E. coli” value does the source give for “MGSDKIHHHHHHGTVSWNLREMLAHAEETRKLMPICMDVRAIMATIQRKYKGIKIQEGIVDYGVRFFFYTSKEPVASIITKLNSLNEPLVTMPIGYVTHGFNLEEAARCMRSLKAPAVVSVSSPDAVTTYNGYLTSSSKTSEEHFVETVSLAGSYRDWSYSGQRTELGVEFLKRGDKIVYHTLESPVEFHLDGEVLSLDKLKSLLS” here?
**A.** soluble

**Q.** For “GSMAGWQSYVDNLMCDGCCQEAAIVGYCDAKYVWAATAGGVFQSITPAEIDVIIGKDREGFFTNGLTLGGKKCSVIRDSLYVDSDCTMDIRTKSQGGEPTYNVAVGRAGRVLVFVMGKEGVHGGGLNKKAYSMAKYLRDSGF”, which “soluble on expression in E. coli” value is on record?
**A.** soluble

**Q.** With “MGSDKIHHHHHHEITDGVVRIGVLNDQTGVYAGLAGPGSVWAAKKAVQDFAPEKHGLKVEIVAADHQNKPDVGASIARRWFDVDKVDAIVDVPTSSVVLAVNQVAKEKNKVMIVTGGGTSDLTGKACTPNAIHWAYDTWALANGTGKAVVKSGGKSWFFVTADYAFGHSLERDTEAVVVKNGGKVLGKVRHPFPGNDFSSYLLQAQASKAQVVGLANAGGDTIGAVKQAAEFGVTAGGQKLAGLLVFSSDVQALGLKAAQGLLLSETWYWDMTDENRKFGKEFAAANNGKFPTMAQAGTYSAVIHYLKAVAAMKADGDGAAVVAKMKAMPTDDKLFGKGSIREDGRKIHPLYLFEVKKPSESKYAGDFYKLIATIPATEAFRPMEEGGCPLIGKKAS” as the sequence, how does the “soluble on expression in E. coli” value read?
**A.** not soluble

**Q.** Which “soluble on expression in E. coli” value does the source give for “MGSDKIHHHHHHMTVNDKKRLAIIGGGPGGLAAARVFSQSLPNFEIEIFVKDYDIGGVWHYPEQKSDGRVMYDHLETNISKKLMQFSGFPFEENVPLYPSRRNIWEYLKAYYKTFIANKDAISIHFSTEVTYLKKKNSQWEITSKDELRTTKSDFDFVIVASGHYSVPKLPTNIAGLDLWFDNKGAFHSKDFKNCEFAREKVVIVVGNGSSGQDIANQLTTVAKKVYNSIKEPASNQLKAKLIETVQTIDSADWKNRSVTLSDGRVLQNIDYIIFATGYYYSFPFIEPSVRLEVLGEGVTGDKHSSVNLHNLWEHMIYVKDPTLSFILTPQLVIPFPLSELQAAIMVEVFCKSLPITTTFDSNACGTHNFPKERTWNTMQNYRNY” here?
**A.** not soluble

**Q.** With “MFKSQTAILPEAGPFALYTLLKVRQNHAHVLQALKALPALVEEINQNQPGAELTVSVAFSKGFWSHFEMASPPELIDFPELGEGETHAPSTDVDVLIHCHATRHDLLFYTLRKGISDIAQDIEIVDETYGFRYLDARDMTGFIDGTENPKAEKRAEVALVADGDFAGGSYVMVQRFVHNLPAWNRLNLAAQEKVIGRTKPDSVELENVPAASHVGRVDIKEEGKGLKIVRHSLPYGSVSGDHGLLFIAYCHTLHNFKTMLESMYGVTDGKTDQLLRFTKAVTGAYFFAPSQVMLQELTLKNQ” as the sequence, how does the “soluble on expression in E. coli” value read?
**A.** not soluble

**Q.** For “MIQTKQIGLQEVLSAAIKRATDEKILVSFVKQIDWMDPLLFYAAGKRISFENRCYFADPAQHVIFAGIGSVFTIATASRKRFQTARDEWDKVKEKAFVQREKYEFGTGPLLFGGFSFDQEKEKTDLWKEFDDTTFSLPTFLLTVKNEKAWLTMNTFVSATDCAETLYNEIVSLEEKIFEESKCALEGSKLTVTSKVEVDPKGWMKAIEKVQDEMKQGNVQKVVLARELKVEMDHHIDSALVLEALRIGQPDCYVFSFDYKGACFLGATPERLIRKEDEKFTSMCLAGSTSHGQSIEESKRNSNALLHDEKNLAEHGYVVNMIRSVLNEHCEFVNIPESPGLLTTKNLIHLYTPVEAKGDASLLTMVEELHPTPALGGTPRLEAMKLIRDVELLDRGLYGAPIGWIDDEGNGEFAVALRCGLLNGEKASLFAGCGIVIDSVPQLEYEETSLKFRPMLGALEELMK”, which “soluble on expression in E. coli” value is on record?
**A.** not soluble

**Q.** For “MAIDYSKWDKIELSDDSDVEVHPNVDKKSFIKWKQQSIHEQRFKRNQDIKNLETQVDMYSHLNKRVDRILSNLPESSLTDLPAVTKFLNANFDKMEKSKGENVDPEIATYNEMVEDLFEQLAKDLDKEGKDSKSPSLIRDAILKHRAKIDSVTVEAKKKLDELYKEKNAHISSEDIHTGFDSSFMNKQKGGAKPLEATPSEALSSAAESNILNKLAKSSVPQTFIDFKDDPMKLAKETEEFGKISINEYSKSQKFLLEHLPIISEQQKDALMMKAFEYQLHGDDKMTLQVIHQSELMAYIKEIYDMKKIPYLNPMELSNVINMFFEKVIFNKDKPMGKESFLRSVQEKFLHIQKRSKILQQEEMDESNAEGVETIQLKSLDDSTELEVNLPDFNSKDPEEMKKVKVFKTLIPEKMQEAIMTKNLDNINKVFEDIPIEEAEKLLEVFNDIDIIGIKAILENEKDFQSLKDQYEQDHEDATMENLSLNDRDGGGDNHEEVKHTADTVD”, which “soluble on expression in E. coli” value is on record?
**A.** soluble

**Q.** Which “soluble on expression in E. coli” value does the source give for “MRLCHSIILFNSLISISICSKADDPALLVASEFKEHFNVEEKQLETVEELLIKMKKLAHSRSFKGREFGHDAVEDSKKEVAISTQQGTINKKVSPFLFEGDIFLSRRQAVDILKALSKDKTKRLRRSFVSDKTATWKTMPIKYRFHESIDFYTISQIIAAIRFWEDSTCITFENVSDSPDGDYIEFFSGQGCYSMIGRNGGRQGISIGESCVKASFFVMGVIEHEIGHALGLWHEQSRPDALGYVTIERDFILPSYISDFLQRDDEIDTLGIPYDLGSVMHYGSTAFSVDQKSKTVVTRDSLYQQTIGQREKLSFYDVATINTAYCKDECKSEKTKCENGGYMRPSKCSECLCPDGLGGEKCEKNEDSKNAECGGIIKLTEEWKEIESPNYPDPGYEADQKCSWLLKAEKGKRVEIEFIEDFSFLCTSTCVDFVELKISDDLRNTGFRFCCYDKPEISFVSQTDTAIIIFRSQLSTDIGFKIQAKSNELIIKTFKNSQKTKMQILFPKLSLKNNSADAEPRTTIAPTIITTTLAPITVDAPNVWADWGEWSMCSRTCGGCGIRSRVRSCRSKKCEGRRQEFGTCNLKACPVDKHCAKLLSNNRLCNGKVCTKNDIAISSCDAPQCCPPFINVDGVCQSDQENQHDELWLSI” here?
**A.** not soluble

**Q.** With “GAMAGSIRSKLSAIDVRQLGTVDYRTAWQLQRELADARVAGGADTLLLLEHPAVYTAGRRTETHERPIDGTPVVDTDRGGKITWHGPGQLVGYPIIGLAEPLDVVNYVRRLEESLIQVCADLGLHAGRVDGRSGVWLPGRPARKVAAIGVRVSRATTLHGFALNCDCDLAAFTAIVPCGISDAAVTSLSAELGRTVTVDEVRATVAAAVCAALDGVLPVGDRVPSHAVPSPL” as the sequence, how does the “soluble on expression in E. coli” value read?
**A.** soluble

From the DeepSol protein solubility set
